Each block holds one binder with its values, some of them ahead of it.
Experiments:
[1] = biological target: T1, Mbd2 (endogenous, mouse ESCs) (mouse, UniProt Q9Z2E1 1-414, limits assumed); test: co-IP with flag beads from ESCs carrying a Flag-tagged Mbd3 transgene, western blot
From the text: FIG. 61A—The present inventors established an ESC line carrying recovery of Flag-tagged Mbd3 transgene inserted in Mbd3^{-/-} ESC line. […] Moreover, Mbd3 interacts with Sall4 pluripotency reprogramming factor in ESCs. […] These assays recapitulate observation in many other cell lines where Mbd2 and Mbd3 form mutually exclusive complexes (Le Guezennec, X. et al. Mol. Cell. Biol. 26, 843-851, 2006; Aguilera, C. et al. Nature 469, 231-235, 2011).

[2] = biological target: T2, Mta2 (endogenous, mouse cells) (mouse, UniProt Q9R190 1-668); test: co-IP from a control ESC line, western blot
T2 sequence (looked up): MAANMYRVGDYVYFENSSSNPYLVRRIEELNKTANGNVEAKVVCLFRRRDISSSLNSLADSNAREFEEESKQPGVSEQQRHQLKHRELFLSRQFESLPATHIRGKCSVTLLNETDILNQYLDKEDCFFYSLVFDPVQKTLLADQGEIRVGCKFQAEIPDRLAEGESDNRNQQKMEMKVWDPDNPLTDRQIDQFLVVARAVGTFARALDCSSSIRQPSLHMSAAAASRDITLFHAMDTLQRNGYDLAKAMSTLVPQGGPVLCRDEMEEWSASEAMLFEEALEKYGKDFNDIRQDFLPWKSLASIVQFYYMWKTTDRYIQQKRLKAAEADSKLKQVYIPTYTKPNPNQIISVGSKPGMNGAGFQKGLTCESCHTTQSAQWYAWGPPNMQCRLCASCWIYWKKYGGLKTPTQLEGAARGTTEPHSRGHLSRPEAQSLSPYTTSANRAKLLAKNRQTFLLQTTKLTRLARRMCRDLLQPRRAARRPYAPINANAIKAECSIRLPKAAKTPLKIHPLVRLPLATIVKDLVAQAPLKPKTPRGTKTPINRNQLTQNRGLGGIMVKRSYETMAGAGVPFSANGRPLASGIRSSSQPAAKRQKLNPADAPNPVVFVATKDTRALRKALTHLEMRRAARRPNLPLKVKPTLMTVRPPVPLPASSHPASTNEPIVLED

[3] = biological target: T1, Mbd2 (endogenous, mouse ESCs); test: pull down of Mbd2 from a control ESC line, western blot

T1 sequence (Q9Z2E1 whole entry): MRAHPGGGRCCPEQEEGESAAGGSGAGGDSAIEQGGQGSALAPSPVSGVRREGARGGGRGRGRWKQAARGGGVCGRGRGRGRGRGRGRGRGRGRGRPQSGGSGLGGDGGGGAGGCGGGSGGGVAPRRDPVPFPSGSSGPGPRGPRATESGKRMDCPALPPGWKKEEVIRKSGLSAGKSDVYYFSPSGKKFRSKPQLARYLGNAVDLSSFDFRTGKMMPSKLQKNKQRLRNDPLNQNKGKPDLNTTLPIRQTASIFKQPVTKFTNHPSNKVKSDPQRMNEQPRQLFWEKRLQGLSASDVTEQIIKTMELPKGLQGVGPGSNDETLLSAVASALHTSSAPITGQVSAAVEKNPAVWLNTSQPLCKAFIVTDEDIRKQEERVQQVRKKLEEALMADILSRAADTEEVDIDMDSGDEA

binding result [1]: no binding
B1: Flag-tagged Mbd3 (other)
chain: MERKRWECPALPQGWEREEVPRRSGLSAGHRDVFYYSPSGKKFRSKPQLARYLGGSMDLSTFDFRTGKMLMSKMNKSRQRVRYDSSNQVKGKPDLNTALPVRQTASIFKQPVTKITNHPSNKVKSDPQKAVDQPRQLFWEKKLSGLNAFDIAEELVKTMDLPKGLQGVGPGCTDETLLSAIASALHTSTMPITGQLSAAVEKNPGVWLNTTQPLCKAFMVTDEDIRKQEELVQQVRKRLEEALMADMLAHVEELARDGEAPLDKACAEDDDEEDEEEEEEEPDPDPEMEHV
notes: also called pCaggs-Flag-Mbd3; Flag-tagged Mbd3 transgene; not shown: Flag tag

binding result [2]: binds | binding result [3]: no binding
B2: Mbd3 (endogenous, mouse cells) (other, UniProt Q9Z2D8 1-285, looked up)
chain: MERKRWECPALPQGWEREEVPRRSGLSAGHRDVFYYSPSGKKFRSKPQLARYLGGSMDLSTFDFRTGKMLMNKMNKSRQRVRYDSSNQVKGKPDLNTALPVRQTASIFKQPVTKITNHPSNKVKSDPQKAVDQPRQLFWEKKLSGLSAFDIAEELVRTMDLPKGLQGVGPGCTDETLLSAIASALHTSTLPITGQLSAAVEKNPGVWLNTAQPLCKAFMVTDDDIRKQEELVQQVRKRLEEALMADMLAHVEELARDGEAPLDKACAEEEEEEEEEEEEPEPERV

Source: US20210253998A1 (published 2021)
